The record followed here is patent US20200155648A1 (CHILDREN S MEDICAL CENTER, published 2020).

One may read the Kd as the equilibrium constant for the complex coming apart. High values mean weaker binding, low ones tighter binding.

This test has as its target T1, rhVEGFR1-Fc (R&D Systems, Minneapolis, Minn.) (human, UniProt P17948-2 27-687, limits assumed).
T1 construct: It was captured on plates by an anti-Fc antibody; also called Flt-1; not shown: Fc part of the bought fusion
The test is described as follows: cell-free plate assay: rhVEGFR1-Fc captured by anti-Fc, VEGF165 titrated, Kd from the double reciprocal plot; heparin level not given. Here is the method: Plates were washed five times with wash buffer (0.05% Tween-20 in PBS, pH 7.2-7.4) the next morning and blocked with blocking buffer (2% bovine serum albumin and 0.05% Tween-20 in PBS) for 1 hour at 37° C. […] Substrate reaction was stopped with 2N sulfuric acid and the signal was visualized with a FLUOstar Omega microplate reader (BMG Labtech, Cary, N.C.) at 450 nm.
All other outcomes were analyzed with analysis of variance.

T1 sequence (P17948 other isoform, or with tags, fused parts or gaps limits assumed): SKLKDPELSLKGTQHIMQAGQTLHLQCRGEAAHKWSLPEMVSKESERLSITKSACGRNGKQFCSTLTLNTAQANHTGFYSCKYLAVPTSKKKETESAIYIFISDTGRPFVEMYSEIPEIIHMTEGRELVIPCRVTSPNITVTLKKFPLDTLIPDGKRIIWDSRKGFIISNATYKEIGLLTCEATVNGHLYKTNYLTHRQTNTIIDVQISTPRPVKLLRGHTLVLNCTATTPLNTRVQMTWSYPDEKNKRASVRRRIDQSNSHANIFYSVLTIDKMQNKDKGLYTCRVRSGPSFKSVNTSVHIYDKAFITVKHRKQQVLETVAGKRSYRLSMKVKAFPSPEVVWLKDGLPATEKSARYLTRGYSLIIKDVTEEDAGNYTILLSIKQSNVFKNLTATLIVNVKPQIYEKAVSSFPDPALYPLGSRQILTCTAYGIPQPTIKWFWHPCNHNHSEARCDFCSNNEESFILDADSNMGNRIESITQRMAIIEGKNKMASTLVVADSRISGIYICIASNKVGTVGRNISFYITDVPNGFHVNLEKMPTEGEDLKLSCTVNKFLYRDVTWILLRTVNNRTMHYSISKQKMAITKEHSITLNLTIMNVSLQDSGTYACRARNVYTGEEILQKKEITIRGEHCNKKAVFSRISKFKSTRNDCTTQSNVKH

B1: rhVEGF-165 (Shire, Lexington, Mass.) (ligand)
chain: APMAEGGGQNHHEVVKFMDVYQRSYCHPIETLVDIFQEYPDEIEYIFKPSCVPLMRCGGCCNDEGLECVPTEESNITMQIMRIKPHQGQHIGEMSFLQHNKCECRPKKDRARQENPCGPCSERRKHLFVQDPQTCKCSCKNTDSRCKARQLELNERTCRCDKPRR
The molecule B1 gave an equilibrium dissociation constant (Kd) of 8.14 ng/mL.
